Here are results for four molecules from doi:10.1101/2020.05.01.070730 (bioRxiv, 2020).

The target in one series is T1, MutS E. coli (Escherichia coli, UniProt P23909 1-853).
T1 sequence: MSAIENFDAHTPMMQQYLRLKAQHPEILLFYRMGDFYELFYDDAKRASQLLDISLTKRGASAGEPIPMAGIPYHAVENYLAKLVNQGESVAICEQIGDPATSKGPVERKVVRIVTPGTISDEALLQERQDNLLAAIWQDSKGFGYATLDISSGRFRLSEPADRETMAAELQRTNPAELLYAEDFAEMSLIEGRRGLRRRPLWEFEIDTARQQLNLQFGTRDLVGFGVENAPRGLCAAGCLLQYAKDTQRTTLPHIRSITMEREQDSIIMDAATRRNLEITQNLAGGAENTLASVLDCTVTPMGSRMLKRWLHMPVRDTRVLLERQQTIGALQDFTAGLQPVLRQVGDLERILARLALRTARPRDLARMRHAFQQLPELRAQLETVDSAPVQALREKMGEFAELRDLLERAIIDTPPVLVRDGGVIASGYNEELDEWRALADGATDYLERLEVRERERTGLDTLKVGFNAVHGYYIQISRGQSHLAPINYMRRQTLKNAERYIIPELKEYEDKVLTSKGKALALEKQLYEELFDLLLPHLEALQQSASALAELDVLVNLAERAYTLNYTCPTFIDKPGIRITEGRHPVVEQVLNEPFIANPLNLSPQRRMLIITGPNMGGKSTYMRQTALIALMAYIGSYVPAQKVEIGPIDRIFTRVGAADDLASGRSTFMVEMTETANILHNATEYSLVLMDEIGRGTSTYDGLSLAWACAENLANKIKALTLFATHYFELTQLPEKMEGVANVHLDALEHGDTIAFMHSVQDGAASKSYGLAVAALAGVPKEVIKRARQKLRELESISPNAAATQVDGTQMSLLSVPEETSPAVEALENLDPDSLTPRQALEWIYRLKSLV
Kind of series: native PAGE shift.

The next series addresses T2, MutS R842E (Pseudomonas aeruginosa, UniProt Q9HY08 1-855, R842E).
T2 sequence: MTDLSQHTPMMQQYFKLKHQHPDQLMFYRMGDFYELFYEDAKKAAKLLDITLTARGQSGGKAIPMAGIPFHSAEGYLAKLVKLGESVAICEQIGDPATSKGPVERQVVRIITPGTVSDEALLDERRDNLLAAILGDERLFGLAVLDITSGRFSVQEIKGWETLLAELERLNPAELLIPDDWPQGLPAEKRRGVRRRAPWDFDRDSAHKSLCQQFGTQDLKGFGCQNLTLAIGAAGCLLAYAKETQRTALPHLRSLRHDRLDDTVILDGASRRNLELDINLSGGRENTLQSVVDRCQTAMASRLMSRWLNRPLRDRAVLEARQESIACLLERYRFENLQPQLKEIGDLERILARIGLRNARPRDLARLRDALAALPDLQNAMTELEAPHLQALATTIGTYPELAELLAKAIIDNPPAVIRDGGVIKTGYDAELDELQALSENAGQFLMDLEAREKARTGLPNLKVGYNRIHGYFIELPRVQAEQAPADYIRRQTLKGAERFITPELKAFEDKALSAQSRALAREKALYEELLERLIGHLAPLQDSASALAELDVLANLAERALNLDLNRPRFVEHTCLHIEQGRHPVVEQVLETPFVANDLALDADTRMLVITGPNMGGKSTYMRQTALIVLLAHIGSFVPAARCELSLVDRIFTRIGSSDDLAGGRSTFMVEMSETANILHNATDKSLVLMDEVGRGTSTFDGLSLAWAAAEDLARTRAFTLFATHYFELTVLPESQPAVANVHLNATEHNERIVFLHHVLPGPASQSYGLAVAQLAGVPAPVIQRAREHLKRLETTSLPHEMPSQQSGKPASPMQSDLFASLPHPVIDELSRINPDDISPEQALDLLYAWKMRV
In words: native PAGE shift.

The target in a further series is T3, MutS (Pseudomonas aeruginosa, UniProt Q9HY08 1-855).
T3 sequence: T2 sequence with E842R
Kind of series: SPR.

Where a chain is given by its changes, count along the chain named.

B1: GT-pDNA (GT 8 nt from 3'-OH) (dsDNA)
DNA 1: ATGTGAATCAGTATGGTTGCTATCTGC
DNA 2: ATTTCCTTCAGCAGATAGTAACCATACTGATTCACAT
For B1, the binding result in the series with MutS E. coli is reported as “binds”.

B2: pDNA (AT) (dsDNA)
DNA 1: ATGTGAATCAGTATGGTTACTATCTGC
DNA 2: B1 DNA 2
Regarding B2, the binding result in the series with MutS R842E was “binds”.

B3: dsDNA (dsDNA)
DNA 1: ATGTGAATCAGTATGGTTACTATCTGCTGAAGGAAAT
DNA 2: B1 DNA 2
On to B3, for which the binding result with MutS R842E is recorded as “binds”.

B4: GT-dsDNA (GT 18 nt from 3' end) (dsDNA)
DNA 1: B3 DNA 1 with A19G
DNA 2: B1 DNA 2
For the molecule B4, the Kd in the series with MutS amounted to 0.118 ± 0.0089 µM. The binding result with MutS R842E is on record as “binds”.
